According to patent publication US11505586B2, “Interaction of Draxin and γ-netrins” (Max-Planck-Gesellschaft zur Foerderung der Wissenschaften …, priority 2014, dated 2022):

Tests used:
recombinant human UNC5B = target: T1, recombinant human UNC5B (Homo sapiens, UniProt Q8IZJ1); experiment: Surface Plasmon Resonance; type: binding; conditions: Biacore 3000, Draxin 0-18.8 nM
T1 construct: made in house; host or cells: HEK293-6E
Method: (§1) Surface Plasmon Resonance (SPR) experiments were performed on a Biacore 3000 (GE Healthcare) at 25° C. using a SA sensor chip in 0.01 M HEPES, pH 7.4, 0.15 M NaCl, 0.005% Surfactant P20 (HBS-P) running buffer at a flow rate of 30 μl/min. The instrument was used according to manufacturer's instructions.
(§2) Recombinant human Draxin was purchased from R&D systems. Biotinylated recombinant human UNC5B, Netrin1 and DCC were produced recombinantly using the described mammalian expression system (HEK293-6E). Biotinylated proteins were immobilised on the SA coated sensor chip and Draxin was injected sequentially in increasing concentrations (0 nM, 1.2 nM. 2.3 nM, 4.7 nM, 9.4 nM, 18.8 nM) for 3 min. […] No binding of Draxin to UNC5B and DCC was detected (FIG. 14).

recombinant human DCC = target: T2, recombinant human DCC (Homo sapiens, UniProt P43146); experiment: Surface Plasmon Resonance; type: binding; conditions: Biacore 3000, Draxin 0-18.8 nM
T2 construct: made in house; host or cells: HEK293-6E
T2 sequence (P43146 26-1097 limits assumed): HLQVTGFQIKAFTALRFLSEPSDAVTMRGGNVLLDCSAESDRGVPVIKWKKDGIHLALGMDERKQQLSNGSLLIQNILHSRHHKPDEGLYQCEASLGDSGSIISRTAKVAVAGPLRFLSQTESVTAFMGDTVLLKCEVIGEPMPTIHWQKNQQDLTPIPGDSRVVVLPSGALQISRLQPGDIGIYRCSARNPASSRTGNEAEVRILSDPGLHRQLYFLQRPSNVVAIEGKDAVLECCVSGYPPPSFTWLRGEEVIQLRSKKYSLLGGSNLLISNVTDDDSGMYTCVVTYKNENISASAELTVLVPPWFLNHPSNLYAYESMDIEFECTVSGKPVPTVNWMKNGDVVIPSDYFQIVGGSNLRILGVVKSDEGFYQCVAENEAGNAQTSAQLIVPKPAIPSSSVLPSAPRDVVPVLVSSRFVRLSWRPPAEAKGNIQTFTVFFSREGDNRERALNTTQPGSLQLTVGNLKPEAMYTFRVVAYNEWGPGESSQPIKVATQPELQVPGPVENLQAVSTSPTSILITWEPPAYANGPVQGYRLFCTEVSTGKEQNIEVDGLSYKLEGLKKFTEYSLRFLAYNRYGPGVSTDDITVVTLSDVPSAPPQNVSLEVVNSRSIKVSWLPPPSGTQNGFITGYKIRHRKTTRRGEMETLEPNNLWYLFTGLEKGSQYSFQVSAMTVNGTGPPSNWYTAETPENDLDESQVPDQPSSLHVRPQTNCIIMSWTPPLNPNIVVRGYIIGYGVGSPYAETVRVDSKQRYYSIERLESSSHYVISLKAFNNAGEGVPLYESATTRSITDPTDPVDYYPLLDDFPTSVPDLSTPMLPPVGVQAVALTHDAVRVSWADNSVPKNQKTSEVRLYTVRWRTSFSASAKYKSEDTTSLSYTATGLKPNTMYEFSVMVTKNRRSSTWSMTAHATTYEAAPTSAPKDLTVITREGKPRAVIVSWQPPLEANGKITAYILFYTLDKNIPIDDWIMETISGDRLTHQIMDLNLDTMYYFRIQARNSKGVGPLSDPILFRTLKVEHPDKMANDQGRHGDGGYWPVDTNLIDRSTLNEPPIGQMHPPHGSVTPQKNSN
Method: as §1, §2

Netrin receptors = experiment: AVEXIS direct binding to Netrin receptors; set-up: species or system zebrafish; conditions: AVEXIS platform
From the text: By using an AVEXIS-based competition assay (FIG. 6 A) we tested whether the binding of DraxinA to Netrin1a has an influence on Netrins ability to bind to Netrin receptors. First we confirmed that we reliably detected the binding of Netrin1a to Netrin receptors of the DCC/Neo1 and Unc5 families with the AVEXIS method. We also tested whether Draxin is able to bind to the corresponding Netrin receptors. […] This has also been confirmed by a recent publication (Haddick et al. 2014). In the competition assay the extracellular domains (ECDs) of Netrin receptors have been used as prey proteins together with purified full length DraxinA and probed for binding against Netrin1a bait proteins. […] The inhibition is specific for DraxinA.

binding to immobilised UNC5B (recombinant human UNC5B): No binding
binding to immobilised DCC (recombinant human DCC): No binding
direct binding to Netrin receptors (Netrin receptors): not able to detect direct binding
B1: Draxin: Recombinant human Draxin purchased from R&D systems (protein, listed as Homo sapiens)
chain: MAGPAIHTAPMLFLVLLLPLELSLAGALAPGTPARNLPENHIDLPGPALWTPQASHHRRRGPGKKEWGPGLPSQAQDGAVVTATRQASRLPEAEGLLPEQSPAGLLQDKDLLLGLALPYPEKENRPPGWERTRKRSREHKRRRDRLRLHQGRALVRGPSSLMKKAELSEAQVLDAAMEESSTSLAPTMFFLTTFEAAPATEESLILPVTSLRPQQAQPRSDGEVMPTLDMALFDWTDYEDLKPDGWPSAKKKEKHRGKLSSDGNETSPAEGEPCDHHQDCLPGTCCDLREHLCTPHNRGLNNKCFDDCMCVEGLRCYAKFHRNRRVTRRKGRCVEPETANGDQGSFINV
